Test results: patent US20130071374A1 (UNIVERSITY OF MEDICINE AND DENTISTRY OF NEW JERSEY, published 2013)

Key:
MazF(His)6 = MazF(His)6 (Escherichia coli, UniProt P0AE70 1-111); test: tricine SDS-PAGE of the purified complex, densitometry
MazF = molecular target: T1, MazF (Escherichia coli, UniProt P0AE70 1-111); test: native PAGE, second dimension SDS-PAGE, densitometry
T1 sequence: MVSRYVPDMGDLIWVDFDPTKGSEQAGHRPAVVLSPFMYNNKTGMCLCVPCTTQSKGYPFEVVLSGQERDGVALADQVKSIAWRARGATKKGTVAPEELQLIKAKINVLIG

PemK(His)6 = molecular target: T2, PemK(His)6 (E. coli (plasmid R100), UniProt P13976 24-133); test: co-purification on Ni-NTA after co-expression
T2 construct: also called Kid

B1: MazE (other)
chain: MIHSSVKRWGNSPAVRIPATLMQALNLNIDDEVKIDLVDGKLIIEPVRKEPVFTLAELVNDITPENLHENIDWGEPKDKEVW
notes: also called antitoxin MazE; ChpAI
ratio of MazF(His)6 to MazE in the complex (MazF(His)6): ~2

B2: (His)6MazE (other)
chain: B1 chain
notes: also called wild-type (His)6MazE; MazE with N-terminal (His)6 tag
ratio of MazF to (His)6MazE in the complex (MazF): ~1.8

B3: PemI (other)
chain: MHTTRLKRVGGSVMLTVPPALLNALSLGTDNEVGMVIDNGRLIVEPYRRPQYSLAELLAQCDPNAEISAEEREWLDAPATGQEEI
binding result (PemK(His)6): binds
